Patent US5726038

Molecular target: FXa/TF/FVIIa

- secreted FXa/TF/FVIIa-dependent chromogenic TFPI- activity: 1 U/ml·OD
Substance: TFPI1-161 -117Gln (non-glycosylated variant of human tissue factor pathway inhibitor, first 161 amino acids, Asn117 replaced by Gln)
